Patent US8063008B2, “Enzymatic production of peracids using perhydrolytic enzymes” (E. I. du Pont de Nemours and Company, priority 2005, dated 2011)

Key:
Assay type in all cases: biochemical
[1] = Protease-catalyzed perhydrolysis of acetamide at pH 4.0 (Example 6); settings: pH 4.0, 500 mM H2O2, 1 mg protease
Description: (§1) Into a 4-mL glass vial with stir bar was added 1 mg protease (Table 6) in 0.050 mL of 50 mM sodium acetate/acetic acid buffer (pH 4.0), 0.900 mL of an aqueous mixture containing either a) acetamide (278 mM) in 50 mM sodium acetate/acetic acid buffer (pH 4.0) or b) diacetamide (278 mM) in 50 mM sodium acetate/acetic acid buffer (pH 4.0), and 0.052 mL 30% hydrogen peroxide (500 mM final concentration). […] A portion of the filtered reaction samples was diluted 1:10 with dd water and analyzed for hydrogen peroxide, and the remaining portion of the sample was directly analyzed for peracid using the HPLC assay method (Table 7).

[2] = Protease-catalyzed perhydrolysis of diacetamide at pH 4.0 (Example 6); settings: pH 4.0, 500 mM H2O2, 1 mg protease
Description: as §1

[3] = Protease-catalyzed perhydrolysis of triacetin at pH 4.0 (Example 7); settings: pH 4.0, 500 mM H2O2, 1 mg protease
Description: Into a 4-mL glass vial with stir bar was added 1 mg protease (Table 6) in 0.050 mL of 50 mM sodium acetate/acetic acid buffer (pH 4.0), 0.900 mL of an aqueous mixture containing triacetin (278 mM) in 50 mM sodium acetate/acetic acid buffer (pH 4.0), and 0.052 mL 30% hydrogen peroxide (500 mM final concentration). […] A portion of the filtered reaction samples was diluted 1:10 with dd water and analyzed for hydrogen peroxide, and the remaining portion of the sample was directly analyzed for peracid using the HPLC assay method (Table 8).

[4] = Protease-catalyzed perhydrolysis of triacetin at pH 6.5 (Example 8); settings: pH 6.5, 500 mM H2O2, 1 mg protease
Description: The analytical procedure described by U. Karst et al. (Anal. Chem., 69 (17):3623-3627 (1997)) was employed, as described herein, for analysis of product mixtures containing peracid and hydrogen peroxide. Briefly, the concentration of peracetic acid (PAA) in analyzed samples ranged from 0.025 mM-10 mM, and the concentration of H2O2 ranged from 0.075 mM-3 mM. Reaction mixtures containing peracid and/or hydrogen peroxide were, if necessary prior to analysis, diluted to produce a concentration of peracid or peroxide in these ranges. […] At the end of 30 minutes, 0.100 mL of 10 mM N,N-diethyl-m-toluamide (DEET, HPLC external standard) was added and the resulting solution analyzed by HPLC: Supelco Discovery C8 10-cm column with pre-column, 10-μL injection, UV detection at 225 nm, solvent A: acetonitrile, solvent B: deionized water, 1 mL/min gradient as follows: […]
Into a 4-mL glass vial with stir bar was added 1 mg protease (Table 6) in 0.050 mL of 50 mM sodium phosphate buffer (pH 6.5), 0.900 mL of an aqueous mixture containing triacetin (278 mM) in 50 mM phosphate buffer (pH 6.5), and 0.052 mL 30% hydrogen peroxide (500 mM final concentration). […] A portion of the filtered reaction samples was diluted 1:10 with dd water and analyzed for hydrogen peroxide, and the remaining portion of the sample was directly analyzed for peracid using the HPLC assay method (Table 9).

[5] = Protease-catalyzed perhydrolysis of acetamide at pH 6.5 (Example 9); settings: pH 6.5, 500 mM H2O2, 1 mg protease
Description: as §1, with “potassium phosphate” for “sodium acetate/acetic acid”, “6.5),” for “4.0),”, “6.5)” for “4.0)”, “10).” for “7).”

[6] = Protease-catalyzed perhydrolysis of diacetamide at pH 6.5 (Example 9); settings: pH 6.5, 500 mM H2O2, 1 mg protease
Description: as §1, with “potassium phosphate” for “sodium acetate/acetic acid”, “6.5),” for “4.0),”, “6.5)” for “4.0)”, “10).” for “7).”

[7] = Enzymatic perhydrolysis of triacetin using a combination of lipase and Alcalase at pH 4.0 and 6.5 (Example 22); settings: H2O2 500 mM, 1 mg lipase, 20 μL Alcalase
Description: Reaction mixtures were prepared containing 1 mg lipase (A “Amano” 12 (Amano), Validase AN (Valley Research), or ICR-110 (BioCatalytics)), and 20 μL Alcalase® (Novozymes) in 1.0 mL of 50 mM buffer (either sodium acetate/acetic acid buffer at pH 4.0, or potassium phosphate buffer at pH 6.5), additionally containing triacetin (250 mM) and hydrogen peroxide (500 mM). […] A portion of the filtered reaction samples was diluted 1:10 with dd water and analyzed for hydrogen peroxide, and the remaining portion of the sample was directly analyzed for peracid using the HPLC assay method (Table 27). Reactions were also run with lipase alone or Alcalase® alone for comparison of peracetic acid concentrations produced without the combination of lipase and Alcalase®.

[8] = Enzymatic perhydrolysis of a mixture of diacetin (250 mM), triacetin (88 mM) and monoacetin (192 mM) using lipase and Alcalase at pH 4.0 and 6.5 (Example 23); settings: 1 mg lipase, 20 μL Alcalase
Description: Reaction mixtures were prepared containing 1 mg lipase (A “Amano” 12 (Amano), Validase AN (Valley Research), or ICR-110 (BioCatalytics)), and 20 μL Alcalase® (Novozymes) in 1.0 mL of 50 mM buffer (either sodium acetate/acetic acid buffer at pH 4.0, or potassium phosphate buffer at pH 6.5), additionally containing a mixture of diacetin (250 mM), triacetin (88 mM) and monoacetin (192 mM) and hydrogen peroxide (500 mM). […] A portion of the filtered reaction samples was diluted 1:10 with dd water and analyzed for hydrogen peroxide, and the remaining portion of the sample was directly analyzed for peracid using the HPLC assay method (Table 28). Reactions were also run with lipase alone or Alcalase® alone for comparison of peracetic acid concentrations produced without the combination of lipase and Alcalase®.

[9] = Enzymatic perhydrolysis of triacetin using a combination of lipase and proteases (Proteinase K, Pronase) at pH 4.0 and 6.5 (Example 10); settings: H2O2 500 mM, 1 mg lipase, 0.3 mg Proteinase K, 1.2 mg Pronase
Description: Reaction mixtures were prepared containing 1 mg lipase (ICR 101, ICR-110, or ICR-117, BioCatalytics, Pasadena, Calif.), 0.3 mg Proteinase K (T. album), and 1.2 mg of Pronase in 1.0 mL of 50 mM buffer (either sodium acetate/acetic acid buffer at pH 4.0, or potassium phosphate buffer at pH 6.5), additionally containing triacetin (250 mM) and hydrogen peroxide (500 mM). […] A portion of the filtered reaction samples was diluted 1:10 with dd water and analyzed for hydrogen peroxide, and the remaining portion of the sample was directly analyzed for peracid using the HPLC assay method (Table 11). Reactions were also run with lipase alone or protease(s) alone for comparison of peracetic acid concentrations produced without the combination of lipase and protease(s).

B1: Papain: Papain, papaya latex, Sigma P3125 (protein, UniProt P00784 134-345, looked up)
Papain: IPEYVDWRQKGAVTPVKNQGSCGSCWAFSAVVTIEGIIKIRTGNLNEYSEQELLDCDRRSYGCNGGYPWSALQLVAQYGIHYRNTYPYEGVQRYCRSREKGPYAAKTDGVRQVQPYNEGALLYSIANQPVSVVLEAAGKDFQLYRGGIFVGPCGNKVDHAVAAVGYGPNYILIKNSWGTGWGENGYIRIKRGTGNSYGVCGLYTSSFYPVKN
[1]
  acetamide (250 mM) peracetic acid (ppm), 5 min: 81 ppm
  acetamide (250 mM) peracetic acid (ppm), 30 min: 105 ppm
[2]; 5 min
  diacetamide (250 mM) peracetic acid (ppm), 5 min: 135 ppm
[2]; 30 min
  diacetamide (250 mM) peracetic acid (ppm), 30 min: 172 ppm
[3]; 5 min
  triacetin (250 mM) peracetic acid (ppm), 5 min: 85 ppm
[3]; 30 min
  triacetin (250 mM) peracetic acid (ppm), 30 min: 48 ppm
[4]; 5 min
  triacetin (250 mM) peracetic acid (ppm), 5 min: 203 ppm
[4]; 30 min
  triacetin (250 mM) peracetic acid (ppm), 30 min: 142 ppm
[5]
  acetamide (250 mM) peracetic acid (ppm), 5 min: 199 ppm
  acetamide (250 mM) peracetic acid (ppm), 30 min: 157 ppm
[6]
  diacetamide (250 mM) peracetic acid (ppm), 5 min: 342 ppm
  diacetamide (250 mM) peracetic acid (ppm), 30 min: 187 ppm

B2: Alcalase ®: Novozymes; subtilisin Carlsberg or subtilisin A from Bacillus licheniformis (protein, UniProt P00780 106-379, looked up)
Subtilisin Carlsberg: AQTVPYGIPLIKADKVQAQGFKGANVKVAVLDTGIQASHPDLNVVGGASFVAGEAYNTDGNGHGTHVAGTVAALDNTTGVLGVAPSVSLYAVKVLNSSGSGSYSGIVSGIEWATTNGMDVINMSLGGASGSTAMKQAVDNAYAKGVVVVAAAGNSGSSGNTNTIGYPAKYDSVIAVGAVDSNSNRASFSSVGAELEVMAPGAGVYSTYPTNTYATLNGTSMASPHVAGAAALILSKHPNLSASQVRNRLSSTATYLGSSFYYGKGLINVEAAAQ
[7]; pH 4.0, triacetin 250 mM
  peracetic acid (ppm), 5 min: 0 ppm
  peracetic acid (ppm), 30 min: 0 ppm
[7]; pH 6.5, triacetin 250 mM
  peracetic acid (ppm), 5 min: 180 ppm
  peracetic acid (ppm), 30 min: 330 ppm
[8]; pH 4.0, H2O2 500 mM
  peracetic acid (ppm), 5 min: 0 ppm
  peracetic acid (ppm), 30 min: 20 ppm
[8]; pH 6.5, H2O2 500 mM
  peracetic acid (ppm), 5 min: 110 ppm
  peracetic acid (ppm), 30 min: 210 ppm

B3: Proteinase K, T. album: Proteinase K, T. album, Novagen 70663; a fungal subtilisin from Tritirachium album (protein, UniProt P06873 106-384, looked up)
Proteinase K: AAQTNAPWGLARISSTSPGTSTYYYDESAGQGSCVYVIDTGIEASHPEFEGRAQMVKTYYYSSRDGNGHGTHCAGTVGSRTYGVAKKTQLFGVKVLDDNGSGQYSTIIAGMDFVASDKNNRNCPKGVVASLSLGGGYSSSVNSAAARLQSSGVMVAVAAGNNNADARNYSPASEPSVCTVGASDRYDRRSSFSNYGSVLDIFGPGTSILSTWIGGSTRSISGTSMATPHVAGLAAYLMTLGKTTAASACRYIADTANKGDLSNIPFGTVNLLAYNNYQA
[1]
  acetamide (250 mM) peracetic acid (ppm), 5 min: 34 ppm
  acetamide (250 mM) peracetic acid (ppm), 30 min: 49 ppm
[5]
  acetamide (250 mM) peracetic acid (ppm), 5 min: 270 ppm
  acetamide (250 mM) peracetic acid (ppm), 30 min: 214 ppm
[6]
  diacetamide (250 mM) peracetic acid (ppm), 5 min: 104 ppm
  diacetamide (250 mM) peracetic acid (ppm), 30 min: 100 ppm
[9]; pH 4.0, triacetin 250 mM
  peracetic acid (ppm), 5 min: 24 ppm
  peracetic acid (ppm), 30 min: 7 ppm
[9]; pH 6.5, triacetin 250 mM
  peracetic acid (ppm), 5 min: 323 ppm
  peracetic acid (ppm), 30 min: 669 ppm
